Measurements published in paper PMC11420332 (Biologics : Targets & Therapy, 2024).

Assays:
Experiment in all cases: ELISA
[1] = biological target: IL-17C (Homo sapiens, UniProt Q9P0M4)
[2] = biological target: IL-17B (Homo sapiens, UniProt Q9UHF5)
[3] = biological target: IL-17D (Homo sapiens, UniProt Q8TAD2)

Measured: binding result

Sequence of IL-17C (Q9P0M4 19-197): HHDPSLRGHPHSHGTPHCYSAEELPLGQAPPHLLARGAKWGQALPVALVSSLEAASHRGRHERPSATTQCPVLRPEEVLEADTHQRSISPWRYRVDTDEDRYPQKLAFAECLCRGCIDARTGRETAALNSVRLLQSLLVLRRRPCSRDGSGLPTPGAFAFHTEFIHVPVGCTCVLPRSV
Sequence of IL-17B (Q9UHF5 21-180): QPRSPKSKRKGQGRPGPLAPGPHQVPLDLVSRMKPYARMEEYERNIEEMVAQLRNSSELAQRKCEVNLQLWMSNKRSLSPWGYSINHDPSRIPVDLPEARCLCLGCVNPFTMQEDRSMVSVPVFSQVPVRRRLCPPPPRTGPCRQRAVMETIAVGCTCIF
Sequence of IL-17D (Q8TAD2 16-202): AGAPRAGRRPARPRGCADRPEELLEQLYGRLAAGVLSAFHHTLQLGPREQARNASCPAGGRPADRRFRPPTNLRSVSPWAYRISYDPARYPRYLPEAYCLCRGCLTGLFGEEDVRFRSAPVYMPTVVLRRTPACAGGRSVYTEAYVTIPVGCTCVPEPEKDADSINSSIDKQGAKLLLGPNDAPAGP

B1: Ixekizumab (antibody, V domains shown)
VH: QVQLVQSGAEVKKPGSSVKVSCKASGYSFTDYHIHWVRQAPGQGLEWMGVINPMYGTTDYNQRFKGRVTITADESTSTAYMELSSLRSEDTAVYYCARYDYFTGTGVYWGQGTLVTVSS
VL: DIVMTQTPLSLSVTPGQPASISCRSSRSLVHSRGNTYLHWYLQKPGQSPQLLIYKVSNRFIGVPDRFSGSGSGTDFTLKISRVEAEDVGVYYCSQSTHLPFTFGQGTKLEIK
no binding (tested: 100 ng/well): [1] | [2] | [3]
